Experimental data as given in patent US20020146846A1 (published 2002).

Tests used:
[1] = molecular target: T1, epithelial glycoprotein-2 (EGP-2) on EGP-2 overexpressing SW2 cells (human, UniProt P16422 24-314); assay: RIA of 99mTc-labelled scFv on SW2 cells, 4 C
T1 construct: whole, on cells; Endogenous antigen of the human SW2 cell line; also called GA733-2; Ep-CAM
T1 sequence (looked up): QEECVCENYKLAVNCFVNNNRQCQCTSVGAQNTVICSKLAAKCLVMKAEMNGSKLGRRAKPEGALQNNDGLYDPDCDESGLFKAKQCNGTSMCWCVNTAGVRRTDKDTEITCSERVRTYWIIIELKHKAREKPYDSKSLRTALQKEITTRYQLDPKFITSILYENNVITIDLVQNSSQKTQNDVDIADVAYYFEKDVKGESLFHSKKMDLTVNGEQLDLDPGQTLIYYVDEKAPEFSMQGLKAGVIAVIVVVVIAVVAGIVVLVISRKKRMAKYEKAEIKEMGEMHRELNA

[2] = molecular target: T2, human epithelial glycoprotein-2, recombinant soluble protein (M1-F259) with a six-histidine C-terminal tag (human, UniProt P16422 24-259); assay: SPR (BIAcore), EGP-2 amine-coupled to CM-5 chip, scFv injected, 20 C
T2 construct: range 1-259; The stated range M1-F259 starts at the initiator methionine; also called recombinant soluble EGP-2-antigen; immobilized EGP-2
T2 sequence: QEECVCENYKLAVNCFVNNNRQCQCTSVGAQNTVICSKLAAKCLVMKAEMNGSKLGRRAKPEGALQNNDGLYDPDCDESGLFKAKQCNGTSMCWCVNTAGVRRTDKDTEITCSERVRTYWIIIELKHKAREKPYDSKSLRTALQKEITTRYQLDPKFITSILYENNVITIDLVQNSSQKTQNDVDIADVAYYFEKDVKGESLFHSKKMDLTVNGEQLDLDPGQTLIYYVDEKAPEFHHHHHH

[3] = molecular target: T2, human epithelial glycoprotein-2, …; assay: SPR (BIAcore), immobilized EGP-2, low density coating and high flow rate

B1: anti-EGP-2 scFv fragment 4D5MOC-B (scFv)
chain: DIQMTQSPSSLSASVGDRVTITCRSTKSLLHSNGITYLYWYQQKPGKAPKLLIYQMSNLASGVPSRFSSSGSGTDFTLTISSLQPEDFATYYCAQNLEIPRTFGQGTKVELKRTPSHNSHQVPSAGGPTANSGTSGSEVQLVQSGPGLVQPGGSVRISCAASGYTFTNYGMNWVKQAPGKGLEWMGWINTYTGESTYADSFKGRFTFSLDTSASAAYLQINSLRAEDTAVYYCARFAIKGDYWGQGTLLTVSS
In the case of B1, the Kd [1] is reported as 3.7 nM, the Kd [2] is reported as 3.9 nM and the koff [2] is reported as 0.000717 s⁻¹. For the same binder, the kon [2] was 184000 M⁻¹ s⁻¹.

B2: anti-EGP-2 scFv fragment obtained from the murine hybridoma MOC31 (scFv)
chain: DIVMTQSAFSNPVTLGTSASISCRSTKSLLHSNGITYLYWYLQKPGQSPQLLIYQMSNLASGVPDRFSSSGSGTDFTLRISRVEAEDVGVYYCAQNLEIPRTFGGGTKLEIKRTPSHNSHQVPSAGGPTANSGTSGSQVQLQQSGPELKKPGETVKISCKASGYTFTNYGMNWVKQAPGRGLKWMGWINTYTGESTYADDFKGRFAFSLETSASAAYLQINNLKNEDTATYFCARFAIKGDYWGQGTTLTVSS
B2 showed a Kd [1] of 10.8 nM, a Kd [2] of 3 nM and a koff [2] of 0.0003 s⁻¹. For the same binder, the kon [2] was 99000 M⁻¹ s⁻¹ and the “half-life of binding on its target” value [3] was roughly 38 min.
